First the molecules themselves.
B1: Hairpin Ribozyme (parent)
chain: GUCCUCUUUCACGUGCGCGUGAAAGAGAGAAGUGAACCAGAGAAACACACGUUGUGGUAUAUUACCUGGUA

The data set covers variants of B1. As to the kind of experiment: self-cleavage, relative activity (ratio to wild type); higher = more cleavage; co-transcriptional.
Consider U5A U67A, for which the self-cleavage turned out to be 0.0927. Consider U5A U67C, for which the self-cleavage stood at 0.111. As for C4U U67G, the figure is 0.143; as for C4U U67C, 0.128. The result for U5A A49G reads 0.103; that for U5C C65U, 0.24; that for U5A U53G, 0.278. The result for U5C A30G reads 0.111; that for U5C A30C, 0.154. Turning to U5C C16G, the self-cleavage was 0.516. The result for U5C C16U reads 0.71; that for U5A A22U, 0.274. Turning to U5A G29C, the self-cleavage came out at 0.153. As for U5C A35G, the figure is 0.358; as for U5C G40U, 0.19; as for U5C G40A, 0.321. For U5C G40C, the self-cleavage was determined as 0.0912. The result for U5C U60G reads 0.236. The result for U5C U60C reads 0.549; that for C4U U58G, 0.218; that for U5A G42C, 0.106. As to U5A G42U, the self-cleavage came out at 0.275. Turning to C4U U55G, the self-cleavage stood at 0.157.

Turning to U5A G68C, the self-cleavage is 0.11.

Take U5A G68A: the self-cleavage stood at 0.146. As for U5A A64G, the figure is 0.154; as for U5A C48U, 0.104. On to U5G A39U, for which the self-cleavage was determined as 0.11. The result for U5G A39C reads 0.129; that for U5C A59G, 0.222. The result for U5C A59U reads 0.0936. Take U5A C37A: the self-cleavage came out at 0.0853. With U5A C37U, the self-cleavage came out at 0.291. As to U5A C46G, the self-cleavage was 0.232. As for U5A A41C, the figure is 0.554; as for U5A C12U, 0.314; as for U5C C38U, 0.298. As for U5A U58A, the figure is 0.387; as for U5A U58C, 0.615; as for U5A A23G, 0.377. Turning to U5C G56C, the self-cleavage is 0.159. U5G A23U: the self-cleavage was determined as 0.192.

Regarding U5G A23C, the self-cleavage came to 0.431. As for U5C C37G, the figure is 0.205. On to U5A G13A, for which the self-cleavage was determined as 0.139. As for C4U U8A, the figure is 0.2.

Turning to U5C U67G, the self-cleavage worked out at 0.245. The result for U5A G57C reads 0.231; that for U5A G57A, 0.154; that for U5A A44G, 0.121.

With U5A A44C, the self-cleavage worked out at 0.156. The result for U5C A28C reads 0.139; that for U5A G25U, 0.279; that for U5A C38U, 0.0767. The result for U5G A22C reads 0.24; that for U5G A22U, 0.176; that for U5C C46G, 0.0996.

As to C4U U7G, the self-cleavage came out at 0.235. As for U5C G21C, the figure is 0.6; as for U5C G21A, 0.62. The result for U5C G21U reads 0.593; that for U5C G13C, 0.47; that for U5A G34A, 0.435.

On to U5A G34C, for which the self-cleavage turned out to be 1.27. On to U5A G34U, for which the self-cleavage turned out to be 1.07. Take U5C C48A: the self-cleavage turned out to be 0.122. For U5G A30C, the self-cleavage turned out to be 0.0771.

With U5G A30U, the self-cleavage was determined as 0. The result for U5G A59U reads 0.0694; that for U5A A30C, 0.0813. With U5A G56U, the self-cleavage came to 0.206. U5A G56C: the self-cleavage was 0.0893. As to C4U U53C, the self-cleavage was found to be 0.398. For U5A C6U, the self-cleavage was 0.228. As for U5A C6G, the figure is 0.192; as for U5A A36C, 0.168; as for U5A G21U, 0.322. As for U5G A24U, the figure is 0.235; as for C4U U9C, 0.22. For U5C A22U, the self-cleavage came to 0.732. In the case of U5C A22C, the self-cleavage is 0.586. The result for U5A A11U reads 0.196; that for U5G A35U, 0.156; that for U5C A26G, 1.26. On to C4U U14C, for which the self-cleavage stood at 0.184. As for C4U U14A, the figure is 0.376. The result for C4U U14G reads 0.418; that for C4U U20C, 0.24; that for C4U U20A, 0.281. The result for U5C C50A reads 0.0675; that for U5A U70C, 0.543. Take U5A U70A: the self-cleavage amounted to 0.286. As for U5C G69U, the figure is 0.186; as for U5A A59G, 0.213. As for C4U U62A, the figure is 0.143; as for U5G A43G, 0. In the case of U5C A71C, the self-cleavage was determined as 1.16.

For U5A U63G, the self-cleavage worked out at 0.264.

For the variant U5C G19C, the self-cleavage amounted to 0.435.

Turning to U5C G19U, the self-cleavage was determined as 0.565.

For the variant U5C U9A, the self-cleavage worked out at 0.418.

On to U5C U9G, for which the self-cleavage is 0.187. Take U5A U55G: the self-cleavage was determined as 0.147. The result for U5A U55A reads 0.163; that for U5G A11U, 0.0986. The result for U5G A11G reads 0.335. As for U5C G15A, the figure is 0.675; as for U5G A71G, 0.207; as for U5C A45C, 0.0908. Consider U5G A36G, for which the self-cleavage was 0.166. The result for U5C A24U reads 0.229; that for U5A U33G, 0.131; that for U5A C50G, 0.0755. The result for U5A C50A reads 0.161; that for U5C G34C, 1; that for U5C G34A, 0.78.

Regarding U5C G34U, the self-cleavage is 1.45.

As to U5A A45C, the self-cleavage came out at 0.161. As for U5A C66A, the self-cleavage was found to be 0.247. As for U5G A28G, the figure is 0.669. On to U5A G15C, for which the self-cleavage stood at 0.33. U5C U62A: the self-cleavage stood at 0.118. Turning to U5C G42A, the self-cleavage stood at 0.133.

In the case of U5C A39C, the self-cleavage was 0.51. As for U5A C18G, the figure is 0.306. The result for U5A C18A reads 0.525; that for U5G A44G, 0.177. As for U5G A44C, the figure is 0.147. In the case of U5C A36U, the self-cleavage turned out to be 0.348. As for U5A A35U, the figure is 0.295.

Regarding U5A A35G, the self-cleavage is 0.559.

As to U5C C18U, the self-cleavage came out at 0.613. U5C C6U: the self-cleavage came out at 0.318. Regarding U5A G40A, the self-cleavage was 0.17.

As to U5G A31C, the self-cleavage turned out to be 0.091. The result for U5G A31G reads 0.17; that for U5C G51A, 0.737; that for U5G A47U, 0.0832. U5C U52A: the self-cleavage was found to be 0.706. On to U5A U14G, for which the self-cleavage turned out to be 0.233.

In the case of U5C U53G, the self-cleavage was found to be 0.448. Consider U5A A31G, for which the self-cleavage is 0.212. As to U5A A31C, the self-cleavage was 0.156. As for U5A G32U, the figure is 0.153. The result for U5A G32C reads 0.0597; that for U5A A39C, 0.139; that for U5C A44U, 0.0797. The result for U5C G68C reads 0.159. In the case of U5C U8G, the self-cleavage was 0.429. Regarding U5C U70A, the self-cleavage worked out at 0.594.

For U5C U70G, the self-cleavage was 0.664. Regarding U5C G57A, the self-cleavage stood at 0.0835. With U5C G57C, the self-cleavage came out at 0.0878. The result for U5A U52A reads 0.646; that for U5A A26U, 0.67. As for U5C G25U, the figure is 0.28. For U5C G25C, the self-cleavage was determined as 0.202. As for U5C A64G, the figure is 0.587.

For the variant U5C A64C, the self-cleavage is 0.19. As for U5C A64U, the figure is 0.0907; as for C4U U60G, 0.299; as for U5A G17U, 0.395. In the case of U5A U20G, the self-cleavage was 0.566. U5A U20C: the self-cleavage came to 0.358. U5C U63C: the self-cleavage is 0.286. Take U5A G19U: the self-cleavage amounted to 0.312. As to U5A G19C, the self-cleavage is 0.245.

The record behind these values is the RNAGym collection of RNA variant scans (doi:10.7554/elife.80360).
